Test results published in patent US20100184108.

Target: T1, 15-residue histone H3 trimethylated Lys9 (H3K9me3) substrate peptide, H2N-ARTKQTARK(tri-methyl)STGGKA-amide
T1 chain: ARTKQTARKSTGGKA

B1: catalytic domain, residues 1-350, of the human histone demethylase JMJD2A (protein)
chain: MASESETLNPSARIMTFYPTMEEFRNFSRYIAYIESQGAHRAGLAKVVPPKEWKPRASYDDIDDLVIPAPIQQLVTGQSGLFTQYNIQKKAMTVREFRKIANSDKYCTPRYSEFEELERKYWKNLTFNPPIYGADVNGTLYEKHVDEWNIGRLRTILDLVEKESGITIEGVNTPYLYFGMWKTSFAWHTEDMDLYSINYLHFGEPKSWYSVPPEHGKRLERLAKGFFPGSAQSCEAFLRHKMTLISPLMLKKYGIPFDKVTQEAGEFMITFPYGYHAGFNHGFNCAESTNFATRRWIEYGKQAVLCSCRKDMVKISMDVFVRKFQPERYKLWKAGKDNTVIDHTLPTPEA
  fluorescence of the formaldehyde-Luminos reagent adduct (demethylase activity, positive control assay): 57,000±400 relative fluorescence units
  fold reduction in the fluorescence signal when a component is omitted: Omission of 2-OG, the H3K9me3 peptide, or JMJD2A results in a ˜30-fold reduction in the fluorescence signal
  signal to background ratio (positive control reactions against negative control assays): signal to background ratio of 20:1 or greater
